# Reference: the DeepSol protein solubility set
# Assay: soluble on expression in E. coli; label from the status in PepcDB or PDB records
row,Sequence,soluble on expression in E. coli
1,MSFNPTRDDFEALLNDSMGGRDFAEGTVVKGKVVGIEKDFAIIDVGLKTEGRVQLKEFGVDENGKATVKAGDTVEVFLERLENAMGEAVISREKAKREEAWTRLEGVYARNEPVMGAIVGRVKGGFTVDLGGASAFLPGSQVDIRPVRDVGPLMGKEQPFAILKMDRPRGNIVVSRRAILEEARAEQRTELVSQLQEGEIREGVVKNITDYGAFVDLGGIDGLLHVTDMSWKRVNHPSQVLAVGDTVKVQIVKINPDTQRISLGMKQLQSDPWDGVEAKYPVGAKFTGRITNITDYGAFVELEAGVEGLVHVSEMSWTKKNVHPGKIVSTSQEVDVVVLDVDPSKRRVSLGLKQALANPWEAFLEAHPVGSTVEGEVKNATEFGLFVGLDNDIDGMVHLSDIDWSVPGEEAMARYKKGDMVKAKVLDVDVEKERISLGIKQLAGDPMSGDTYRKNQTVTVTVTEVTSGGIEVRFGEDDAPMTAFIRKSDLSRDRQEQRPERFAVGDRVDAQITNVDKAARRVSLSIKSLEMAEEKEAIEQFGSSDSGASLGDILGAALRERASKD,soluble
2,MVSVDPLATERWRSIRRLTDRDSAYKVPWFVPGPENFEALQNTKILVIGAGGLGCELLKNLALSGFRTIEVIDMDTIDVSNLNRQFLFRESDVGKSKAEVAAAFVQQRVVGCQVTAHNCRIEDKGQEFYRKFSIIICGLDSIPARRWINGMLCDLVLEMADGKPDENTIIPMIDGGTEGFKGNARVIYPKFTACIDCTLDLYPPQVNFPLCTIAHTPRLPEHCIEYIKVVVWPEEKPFEGVSLDADDPIHVEWVLERASLRAEKYNIRGVDRRLTSGVLKRIIPAVASTNAVIAASCALEALKLATNIAKPIDNYLNFTQIHGAYTSVVSMMKDDNCLTCSGGRLPFEVSPSSTLESLIIRLSERFHLKHPTLATSTRKLYCISSFMPQFEQESKENLHTSMKDLVSDGEEILVSDEALSRALTLRIQLI,not soluble
3,MGSDKIHHHHHHMHIRKYDHDYSRRFFMEQAAKGIATAGVLGPLWPMIANSADITKAYPDELMSIDAWSKGKIKTGDFITAENVEIVKELLDPVAYHHIKTMGRKIRIVPTTRDITRMFPAEYLEATLRNQGKAKLDANSNVVSSDGKPWIGGNPFPDAKTGLEVAANLTMCWGRKDNSLTAIRDWEVAPDGSMSYQYDFAWVEQNTTARADGKVLPGGDELLRYNAVYFTGPSDVKGTSYLNTWYYDQRKFPELVGYLPAFKRVRKFPTNQRFEPLVPGMNLYLSDAWAAGDPMLTWGNYKIVGRGPMLGAQSQTWYGDRPNWERPVQGGPKNQTFFETQMELCPDVVIFEAEPTGYPRAPVGKKRVWVDVRNQMYVAYITYDRRGEIFKSFEPQYSFLEKGDKKLMDGKSTAWHWTAVQCYNFQDGRMTRFQPVTSIAGGMSTAFNIDGLYEKYMTQQALQRMGT,not soluble
4,MKTNPAVDSARLGLLLNELRLPAIKVMWPQFAERADKEGWPAARFLAAIIEHELAERDRRRIERHLAEARLLPGKTLDTFEFEAVPMISKAQVMAITAGDSWLEKGANLLLFGPPGGGKSHLASAIGLALIETGWRVMFTRTTDLVQKLQVARRELGLEAAINRLDRFHLLILDDLAYVTKDQAETSVLFELISARYERRSLLITANQPFGEWGKVFPDPSNARYPCCAAALEHHHHHH,not soluble
5,SNAMNVNQIVRIIPTLKANNRKLNETFYIETLGMKALLEESAFLSLGDQTGLEKLVLEEAPSMRTRKVEGRKKLARLIVKVENPLEIEGILSKTDSIHRLYKGQNGYAFEIFSPEDDLILIHAEDDIASLVEVGEKPEFQTDLASISLSKFEISMELHLPTDIESFLESSEIGASLDFIPAQGQDLTVDNTVTWDLSMLKFLVNELDIASLRQKFESTEYFIPKSEKFFLGKDRNNVELWFEEV,soluble
6,MGSSHHHHHHGGTGENLYFQGGSGMKSVFITGGNRGIGLETARQMGKLGYYVIISCRDEEKAKAAIEKVSAEGVKADYVIMDVVDESSVAKAAAEVSKKVNGVLDALINNAGKAAPSGDMSRVNLDEMRRCYEVNVIGTVCVTNHFLEMVKKSSAGRIVNVGSIKGSCQLEVTALSHTPYNCSKAALNMYTVNLASSLKDTNVKVNCAHPGWVKTDMGGPQAPLEVTEGAETSVYLATLPADGPTGGFFHKRDRLPW,soluble
7,MGSDKIHHHHHHMNADEFVEAFNNAKDLTELELLAELGKSISDDLEGHEKGKVLGTLGNIYYALHRLKEAEEAYLEALNVYLKLSEEDEGFLPYVVGCLYNLGNLYQVSRKFAEAEKAYTDALKVLGDVRNDQRLAILTALGTMYAKLDMKEHAERCLVEAFEMAKVKGDARLLGTLLNNLAVVYQRGGRKREAAMLLKMALDALERVGEDLGIAAVLQNLLPYLDEDELRRVMERLESFGELPIDLKAKIAYFKARRAEEKGEDSAKHYMEAACLGFMAYRNFGFQSINFMHCLDKVIESDSELREDAVVLKKVILKYYYGSQKVEIDFDSRVGRMIKAVLEGDDIYEDGILEDTVRLIAEDLLKAGTKV,not soluble
8,MTFQETISAYIQERYQITPDFPFKKHPDYLVFRHPRNAKWFALIMPLDAQLLGATENKQLTILTVKLAPELIALLKNQPGYFPAYHMNKEHWLSLSEEIPLSQVFSFIDESYQRSY,not soluble
9,MKLFHRITISLSEDDMKLIEELRRDSGDSLSKIFREAIQLYYNLLKASKAAGVDFRKYFANATRLAFHINGVEQKQFAVIDREIYRVMLKKLQEKVPPESIESDEEFRSAVAGVVKLFEITRDRWSEYTDEQKLEEILTTMEFAGAGTFARVGDKEYIFNTYAESTAITKLIISSVLASAGLKVEIDHTPGKIFIRL,not soluble
10,MNSIWARLRLASSQLPIGGYSYSQGLEAALDNGWVRDAESARTWLVDQLQLNLARFEAPLLAGLLRAALIGDWAACDAASERHRASRETRELAQESRQMGFSLHQLLEALPELDAPGRAWLARQDPPNLAAAWAMAARAWRLDAEEALSAWFWSWLENQLAVLMKTLPLGQLAAQKLASSLLPELDRACAEALRRPAVEGSAAFGLALASMTHETQYSRLFRSLEHHHHHH,not soluble
11,MNLSFKINSMYICVHNMDRAINFYENLFNCKVTGKDEIYSVFDINGFRYGLFANKKTGEKKIWGNNCLPSFQVNDIDLILEKLKELNCPIVFPLTNIGKNKVLEFTDCEGNAIEITSPIKLEHHHHHH,not soluble
12,MGSDKIHHHHHHMTTARRQLIDAESTPFYHVINRCVRRAFLCGEDALSGRSYEHRRDWIVDKIKQLSSVFCIDVCAYAVMSNHYHLVLKINLATQKRLSHFEVIERWTQLFFGHPVAAKFLKGDSLEEGERLLLDSLIGEWQERLGSISWFMRCLNEEIARKANREDGCKGVFWEGRFKSQALLDEQALLACMMYVDLNPIRAGIADSLQGSDYTSIQERIEELASPQSAPVALKPLLAFDGAAIATEQCGIPFHFADYLELIDWTGRAVREDKRGFIATTRPKLLAELGISDDAWITSAKEFRRQYSGISGRWDAMCAMKAKCGGKWCRGKQQSASIHPD,not soluble
13,MGSDKIHHHHHHMSKKQFLDQLWARMAQKGDFPTLQYCIDNVFKTLNSDLSVGEMASTVLSDFSLSQKVIRLANSAMYRSFGGEVTTVSRAIMVLGVDTITHLTLGVQVLDFFQGVAPNRPQAARALKQAIMAGEITRALNDARGILGGEEGVVCTLMHHVSRLLVIFYFPDEWDRIMALSADGAMSENDACREVIDISLDDLAKAAAFRWRLPALIADGMLGRELHEETVLETHADWLGAVASLSSDAAASILAEQPEEVVLEPLLTHAQKLGLEPSHVNVAIQQAGTLKASMARSEAPDTGVGSLPDDGGKPADTLTRLQQALAEIRQEGAGMTVSQLAPLVLESAMRALNFSHCFLMLLHPTNKRFGARLGFGEGMRDKLEKLSFEEGFVPDVFHFAMIAPKPLLIEDLRDKAVSHRVPRWYRDAMPDTRSVLLIPVKVRNRCVAMICGDWGATRIAGGLTDGELIAAGDLAGEIATAVLRSAPQR,not soluble
14,MNPGGILMTTDIYFSHNNPHDPYAHHTTELNRDTHHLWVVLTTDSDDFDADSFTTEVIRITGYSRHEVNNGLNAMAAMTNLPHLRAIQERYYFLSIRYLASIMIAVAKADPTLWEELDLRITDALTPVTAGEVMIQSSTLSKRIAAWIKELDPEPTPEPIPKEDYVHVHTTDEATYVRIKISGPNRLILNDIITQLKDTDTEDSLPEALMAFLMEKIQLKITKYLFTPHKHPEQVWSPDYGDIGPEAYANATLVCAKDLDEVAGATEKSYTPSEKMKALIRARDGHCRFPGCCVPASKCQVDHIIPWAEGGPTAAWNLQLLCQRHHNMKTDGRFTADANGLAEIRWIGPMDVPAVTRPTGPLVKAMPRGIWGQVLRDRIQARFERIRVRALNKEDLEHHHHHH,not soluble
15,GSSGSSGGYFDAHALAMDYRSLGFRECLAEVARYLSIIEGLDASDPLRVRLVSHLNNYASQREASGPSSG,soluble
16,MSAQLTDSYGLLEARVTELKGELADAGVQRLQELAEKERLANRLQNLLDLLPGGVIVIDGMGVVREANPAAIDLLGQPLLGMLWRHVISRCFAPREDDGHEVSLKDGRRLSIATRSLDAEPGQLVLLNDLT,not soluble
17,SSTGTFVVSQPLNYRGGARVEPADASGTEKAFEPATGRVIATFTCSGEKEVNLAVQNAKAAFKIWSQKSGMERCRILLEAARIIREREDEIATMECINNGKSIFEARLDIDISWQCLEYYAGLAASMAGEHIQLPGGSFGYTRREPLGVCVGIGAWNYPFQIASWKSAPALACGNAMVFKPSPFTPVSALLLAEIYSEAGVPPGLFNVVQGGAATGQFLCQHPDVAKVSFTGSVPTGMKIMEMSAKGIKPVTL,soluble
18,MAMVIPARNQMASQFLELPKRTSSLMAPTMVLQGHGGEIYTSQFSSDGSFLASAGYDQQIFLWNVFGECENFAVLKGHKGAIMEVKFNADSSHLVSAGTDKTVRVWDMETGSCIRNFKSHTDIVNSVDVNRRGPQMICSASDDGTVMVHDMRSKEAAKKFICKYQQTAVTFNDAADNVICGGIDNQIKVWDMLRNDVRYVLSGHRDTITSLSVSHNGNFLLSNSMDCSLMSWDIRPFVPAQRLVARYQGASHNFEKNLLKCGWSPRDNYITAGSADRFVYVWNAKSRACVYKLPGHLGSVNCTALHPTQQILLSAGSDKTIFLGELDLEDY,not soluble
19,MTEMSFLSSEVLVGDLMSPFDQSGLGAEESLGLLDDYLEVAKHFKPHGFSSDKAKAGSSEWLAVDGLVSPSNNSKEDAFSGTDWMLEKMDLKEFDLDALLGIDDLETMPDDLLTTLDDTCDLFAPLVQETNKQPPQTVNPIGHLPESLTKPDQVAPFTFLQPLPLSPGVLSSTPDHSFSLELGSEVDITEGDRKPDYTAYVAMIPQCIKEEDTPSDNDSGICMSPESYLGSPQHSPSTRGSPNRSLPSPGVLCGSARPKPYDPPGEKMVAAKVKGEKLDKKLKKMEQNKTAATRYRQKKRAEQEALTGECKELEKKNEALKERADSLAKEIQYLKDLIEEVRKARGKKRVP,soluble
20,GMGSSRKVIITCAVTGAIHTPSMSPYLPVTPDEVAQASIGAAEAGAAVIHLHARDPRDGRPTQDPAAFAEFLPRIKSNTDAVINLTTGGSPHMTVEERLRPATHYMPELASLNMGSMNFGLYPMLERFKEFAHGWEREHLERSRDLVFKNTFADIEFILKTCGGNGTRFEFECYDTSHLYNLAHFVDRKLATPPFFVQTVFGLLGGIGPHPEDLAHMRRTADRLFGADYVWSILGAGRHQIPLASIGAAQGANVRVGLEDSLWIAPGELAETNAAQVRKIRQVIEGLSLEVASPAEARTMLGLKGPQNVNF,soluble
21,MRYNEKELQALSRQPAEMAAELGMRGPKKGSVLKRRLVKLVVNFLFYFRTDEAEPVGALLLERCRVVREEPGTFSISFIEDPERKYHFECSSEEQCQEWMEALRRASYEFMRRSLIFYRNEIRKVTGKDPLEQFGISEEARFQLSGLQA,soluble
